Assay results from patent publication CN116199772A (YIDAO BIOTECHNOLOGY SUZHOU CO LTD, dated 2023).

Columns and labels:
Assay in all cases: indirect ELISA, cross-reaction on 9 HPV type antigens
[1] = target: T1, HPV18亚型抗原 (Human papillomavirus type 18, UniProt P06794 62-568)
T1 construct: Called only 'HPV18 antigen'
T1 sequence: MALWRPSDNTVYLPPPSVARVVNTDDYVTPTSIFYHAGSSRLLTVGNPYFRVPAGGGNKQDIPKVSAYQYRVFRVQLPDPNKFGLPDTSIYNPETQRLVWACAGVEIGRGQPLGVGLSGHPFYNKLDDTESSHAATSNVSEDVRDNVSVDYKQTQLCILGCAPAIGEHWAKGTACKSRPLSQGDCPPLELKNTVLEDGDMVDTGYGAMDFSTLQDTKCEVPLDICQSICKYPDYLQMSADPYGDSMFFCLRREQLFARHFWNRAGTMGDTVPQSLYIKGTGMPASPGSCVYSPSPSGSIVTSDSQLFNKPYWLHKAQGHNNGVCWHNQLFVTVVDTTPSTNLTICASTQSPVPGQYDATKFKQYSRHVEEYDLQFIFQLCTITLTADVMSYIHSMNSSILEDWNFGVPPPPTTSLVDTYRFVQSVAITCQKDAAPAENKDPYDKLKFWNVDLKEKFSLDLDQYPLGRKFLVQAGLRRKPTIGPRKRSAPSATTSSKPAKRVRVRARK

[2] = target: T2, HPV 33亚型抗原 (Human papillomavirus type 33, UniProt P06416 1-499)
T2 construct: Called only 'HPV 33 antigen'
T2 sequence: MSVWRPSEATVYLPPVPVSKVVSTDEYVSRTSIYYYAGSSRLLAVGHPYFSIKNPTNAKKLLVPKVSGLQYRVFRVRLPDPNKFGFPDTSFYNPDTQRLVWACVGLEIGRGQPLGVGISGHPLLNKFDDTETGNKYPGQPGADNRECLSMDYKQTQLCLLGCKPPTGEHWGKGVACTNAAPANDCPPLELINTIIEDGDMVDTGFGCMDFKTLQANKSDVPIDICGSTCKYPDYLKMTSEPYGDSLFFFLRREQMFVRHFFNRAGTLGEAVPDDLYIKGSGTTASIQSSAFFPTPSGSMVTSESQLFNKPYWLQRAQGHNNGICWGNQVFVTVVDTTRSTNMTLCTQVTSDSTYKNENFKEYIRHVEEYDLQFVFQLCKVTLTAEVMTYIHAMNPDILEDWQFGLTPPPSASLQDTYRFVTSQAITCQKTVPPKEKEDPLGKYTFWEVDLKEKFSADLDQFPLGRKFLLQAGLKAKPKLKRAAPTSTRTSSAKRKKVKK

[3] = target: T3, HPV 45亚型抗原 (Human papillomavirus type 45, UniProt P36741 30-539)
T3 construct: Called only 'HPV 45 antigen'
T3 sequence: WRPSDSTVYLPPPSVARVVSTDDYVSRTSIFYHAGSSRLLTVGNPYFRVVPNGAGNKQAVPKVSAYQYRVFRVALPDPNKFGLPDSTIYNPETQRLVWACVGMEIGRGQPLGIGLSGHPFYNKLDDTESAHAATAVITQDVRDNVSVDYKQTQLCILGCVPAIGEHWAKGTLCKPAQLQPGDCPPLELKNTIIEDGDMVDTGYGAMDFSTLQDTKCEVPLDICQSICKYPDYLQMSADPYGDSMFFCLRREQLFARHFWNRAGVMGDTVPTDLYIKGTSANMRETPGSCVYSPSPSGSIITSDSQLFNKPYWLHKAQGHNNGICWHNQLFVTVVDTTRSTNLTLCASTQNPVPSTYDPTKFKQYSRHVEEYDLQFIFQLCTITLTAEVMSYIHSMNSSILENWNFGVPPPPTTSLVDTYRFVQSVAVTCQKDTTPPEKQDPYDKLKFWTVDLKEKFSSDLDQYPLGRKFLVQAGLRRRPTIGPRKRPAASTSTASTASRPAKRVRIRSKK

[4] = target: T4, HPV 58亚型抗原 (Human papillomavirus type 58, UniProt P26535 27-524)
T4 construct: Called only 'HPV 58 antigen'
T4 sequence: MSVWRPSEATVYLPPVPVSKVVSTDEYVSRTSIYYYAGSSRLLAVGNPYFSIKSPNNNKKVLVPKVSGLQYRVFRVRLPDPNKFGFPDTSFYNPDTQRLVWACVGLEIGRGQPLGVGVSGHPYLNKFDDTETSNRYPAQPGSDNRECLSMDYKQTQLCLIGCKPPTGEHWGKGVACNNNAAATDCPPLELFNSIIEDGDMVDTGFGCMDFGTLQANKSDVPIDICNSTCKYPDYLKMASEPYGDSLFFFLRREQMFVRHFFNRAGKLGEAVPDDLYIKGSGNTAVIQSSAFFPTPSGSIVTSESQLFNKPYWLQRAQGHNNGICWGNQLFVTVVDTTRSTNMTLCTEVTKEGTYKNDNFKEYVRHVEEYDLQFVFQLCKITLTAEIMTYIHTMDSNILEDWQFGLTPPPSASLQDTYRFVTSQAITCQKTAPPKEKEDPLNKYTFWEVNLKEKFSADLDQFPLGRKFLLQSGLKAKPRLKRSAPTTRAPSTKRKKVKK

[5] = target: T5, HPV11亚型抗原 (Human papillomavirus type 11, UniProt P04012 1-501)
T5 construct: Called only 'HPV11 antigen'
T5 sequence: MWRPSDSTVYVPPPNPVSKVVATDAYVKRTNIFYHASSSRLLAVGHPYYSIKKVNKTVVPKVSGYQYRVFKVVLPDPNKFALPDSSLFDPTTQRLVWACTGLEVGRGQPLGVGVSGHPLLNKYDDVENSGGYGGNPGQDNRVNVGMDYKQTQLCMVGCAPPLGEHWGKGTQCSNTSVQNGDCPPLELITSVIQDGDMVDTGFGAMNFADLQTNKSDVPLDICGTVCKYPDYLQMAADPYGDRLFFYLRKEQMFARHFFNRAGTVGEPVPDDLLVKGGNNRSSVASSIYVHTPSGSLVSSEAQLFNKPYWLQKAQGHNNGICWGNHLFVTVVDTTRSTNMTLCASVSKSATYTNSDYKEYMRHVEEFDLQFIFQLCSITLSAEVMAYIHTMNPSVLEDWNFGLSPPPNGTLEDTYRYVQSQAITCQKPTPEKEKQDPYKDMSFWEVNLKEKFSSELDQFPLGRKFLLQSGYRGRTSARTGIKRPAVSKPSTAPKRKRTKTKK

[6] = target: T6, HPV 16亚型抗原 (Human papillomavirus type 16, UniProt P03101 1-505)
T6 construct: Called only 'HPV 16 antigen'
T6 sequence: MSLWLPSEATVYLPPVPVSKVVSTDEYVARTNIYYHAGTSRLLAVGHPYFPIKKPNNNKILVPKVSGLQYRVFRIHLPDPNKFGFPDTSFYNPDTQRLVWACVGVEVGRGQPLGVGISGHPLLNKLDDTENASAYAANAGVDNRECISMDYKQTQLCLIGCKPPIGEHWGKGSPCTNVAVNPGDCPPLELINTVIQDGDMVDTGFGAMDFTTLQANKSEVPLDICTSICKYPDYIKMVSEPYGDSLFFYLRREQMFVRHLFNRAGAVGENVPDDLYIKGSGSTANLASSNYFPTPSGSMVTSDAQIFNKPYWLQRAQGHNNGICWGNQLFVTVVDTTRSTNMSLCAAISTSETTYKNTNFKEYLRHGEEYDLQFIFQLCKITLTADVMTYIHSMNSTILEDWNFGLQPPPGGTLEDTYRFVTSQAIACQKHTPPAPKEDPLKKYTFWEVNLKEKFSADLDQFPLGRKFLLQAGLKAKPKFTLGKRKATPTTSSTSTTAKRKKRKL

B1: HPV31型单克隆抗体(7H9) (antibody, V domains shown)
VH: QIQLVQSGPELKKPGETVKISCKASGYTFTNYGMNWVKQAPGKGLKWMGWINTYTGEPTYADDFKGRFAFSLETSANTAYLQITNLKNEDMATYFCARRITMEYYYGLDCWGQGTSVTVSS
VL: QAVVTQESALTTSPGETVTLTCRSSTGAVTTSNYANWVQEKPDHLFSGLIGGTNNRVPGVPARFSGSLIGDKAALTITGAQTEDEAIYFCALWYSNHWVFGGGTKLTVL
notes: also called 7H9抗体; HPV31型(7H9)鼠单抗
- binding result [1]: no binding (tested: 抗原1μg/ml包被; 杂交瘤细胞上清20倍稀释)
- binding result [2]: no binding (tested: 抗原1μg/ml包被; 杂交瘤细胞上清20倍稀释)
- binding result [3]: no binding (tested: 抗原1μg/ml包被; 杂交瘤细胞上清20倍稀释)
- binding result [4]: no binding (tested: 抗原1μg/ml包被; 杂交瘤细胞上清20倍稀释)
- binding result [5]: no binding (tested: 抗原1μg/ml包被; 杂交瘤细胞上清20倍稀释)
- binding result [6]: no binding (tested: 抗原1μg/ml包被; 杂交瘤细胞上清20倍稀释)
